As a reminder, the stoichiometry N is the number of molecules, sites or subunits per partner or assembly. Broadly, the koff is the rate constant with which the complex falls apart. Low readings indicate a long-lived complex, high ones a short-lived complex. As usually defined, the kon is the second-order rate constant of association. A higher kon goes with faster complex formation.

Changes are numbered by the printed parent chain.

To fix the notation:
T1: CC2D1B(1-601) (UniProt Q5T0F9 1-601)
T1 sequence (looked up): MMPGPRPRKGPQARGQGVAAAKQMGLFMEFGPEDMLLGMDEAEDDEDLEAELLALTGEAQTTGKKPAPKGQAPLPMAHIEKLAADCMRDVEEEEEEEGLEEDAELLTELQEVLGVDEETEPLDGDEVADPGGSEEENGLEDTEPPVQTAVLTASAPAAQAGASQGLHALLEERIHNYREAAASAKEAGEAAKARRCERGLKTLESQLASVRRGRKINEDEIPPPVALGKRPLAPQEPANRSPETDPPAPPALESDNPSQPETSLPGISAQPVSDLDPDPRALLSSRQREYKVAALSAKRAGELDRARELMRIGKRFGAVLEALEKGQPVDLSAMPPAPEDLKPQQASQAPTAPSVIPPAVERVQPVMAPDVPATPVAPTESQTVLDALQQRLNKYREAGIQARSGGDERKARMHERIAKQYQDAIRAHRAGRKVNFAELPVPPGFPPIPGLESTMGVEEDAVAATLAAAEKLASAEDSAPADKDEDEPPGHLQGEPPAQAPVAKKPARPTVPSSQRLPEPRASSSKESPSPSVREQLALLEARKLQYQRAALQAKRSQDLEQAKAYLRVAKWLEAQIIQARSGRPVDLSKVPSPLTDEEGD

T2: MBP-CHMP4B(23-97) (UniProt Q9H444 23-97)
T2 sequence (looked up): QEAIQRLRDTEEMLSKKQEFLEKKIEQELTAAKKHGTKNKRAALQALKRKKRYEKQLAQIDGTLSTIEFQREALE

T3: CHMP4B(23-97), MBP removed (UniProt Q9H444)
T3 sequence (Q9H444 23-97, species assumed, looked up): T2 sequence (looked up)

B1: CHMP4B(7-110), MBP removed (domain or fragment, UniProt Q9H444 7-110, looked up)
chain: LFGAGGGKAGKGGPTPQEAIQRLRDTEEMLSKKQEFLEKKIEQELTAAKKHGTKNKRAALQALKRKKRYEKQLAQIDGTLSTIEFQREALENANTNTEVLKNMG
B2: MBP-CHMP4B(7-110) (domain or fragment, UniProt Q9H444 7-110, looked up)
chain: B1 chain
B3: CC2D1A(346-494) (domain or fragment, human, UniProt Q6P1N0 346-494, looked up)
chain: RTLLEALEQRMERYQVAAAQAKSKGDQRKARMHERIVKQYQDAIRAHKAGRAVDVAELPVPPGFPPIQGLEATKPTQQSLVGVLETAMKLANQDEGPEDEEDEVPKKQNSPVAPTAQPKAPPSRTPQSGSAPTAKAPPKATSTRAQQQL
B4: MBP-CHMP4B(7-105) (domain or fragment, UniProt Q9H444 7-105, looked up)
chain: LFGAGGGKAGKGGPTPQEAIQRLRDTEEMLSKKQEFLEKKIEQELTAAKKHGTKNKRAALQALKRKKRYEKQLAQIDGTLSTIEFQREALENANTNTEV
B5: MBP-CHMP4B(7-105)_(mut1) (domain or fragment, UniProt Q9H444 7-105, looked up)
chain: B4 chain with R22A, R24A, D25R, E27R
B6: CC2D1A(309-494) (domain or fragment, human, UniProt Q6P1N0 309-494, looked up)
chain: SCLPPPPDQLPPDPPSPPSQPPTPATAPSTTEVPPPPRTLLEALEQRMERYQVAAAQAKSKGDQRKARMHERIVKQYQDAIRAHKAGRAVDVAELPVPPGFPPIQGLEATKPTQQSLVGVLETAMKLANQDEGPEDEEDEVPKKQNSPVAPTAQPKAPPSRTPQSGSAPTAKAPPKATSTRAQQQL
B7: CC2D1A(346-455) (domain or fragment, human, UniProt Q6P1N0 346-455, looked up)
chain: RTLLEALEQRMERYQVAAAQAKSKGDQRKARMHERIVKQYQDAIRAHKAGRAVDVAELPVPPGFPPIQGLEATKPTQQSLVGVLETAMKLANQDEGPEDEEDEVPKKQNS

The target of test [1] is T1, CC2D1B(1-601). The test is described as follows: SEC-MALS. In general terms: SEC sorts molecules by how far they enter the pores of the column.
The target in test [2] is T1, CC2D1B(1-601). The test is described as follows: ITC. (In general: In ITC the heat of successive injections is recorded.)
Test [3] deals with B2. Description: ITC.
Test [4] has as its target B7. Description: SPR.
For test [5], the target named is T2, MBP-CHMP4B(23-97). Description: ITC.
The target of test [6] is T3, CHMP4B(23-97), MBP removed. The test is described as follows: SEC-MALS.

As for B1, in test [1], the “stoichiometry N” value is 1.
Regarding B2, in test [2], the dH was -13700 kcal/mol and the “stoichiometry N” value was determined as 1.02.
For the molecule B3, in test [3], the dH is -8160 kcal/mol and the “stoichiometry N” value amounted to 1.03.
In test [4], B4 gave a koff of 0.0079 s⁻¹ and an association rate constant (kon) of 25000 M⁻¹ s⁻¹.
Taken in the same sequence, the figures for B5 were 0.0017 s⁻¹ and 1200 M⁻¹ s⁻¹.
On to B6, for which, in test [3], the dH was -7380 kcal/mol and the “stoichiometry N” value was determined as 0.84.
Consider B7, for which the dH in test [5] is -14600 kcal/mol; in test [3], -8190 kcal/mol. Moreover, the “stoichiometry N” value in test [5] was found to be 0.9; in test [3], 0.9; in test [6], 1.

The record behind these values is paper PMC3433253 (Journal of molecular biology, 2012).
